Assay results as given in US20130310305A1.

Tests used:
[1] = target: plasminogen (purified; Molecular Innovations in the plasmin activity reactions); assay: cell-based or functional assay
[2] = target: mouse plasminogen (endogenous, in descending aorta protein of LDLR-/- ApoB48-deficient mice) (mouse) (UniProt P20918); assay: co-immunoprecipitation from pooled mouse descending aorta protein, densitometry of the western blot
Chain of UniProt P20918 (P20918 20-812 limits assumed): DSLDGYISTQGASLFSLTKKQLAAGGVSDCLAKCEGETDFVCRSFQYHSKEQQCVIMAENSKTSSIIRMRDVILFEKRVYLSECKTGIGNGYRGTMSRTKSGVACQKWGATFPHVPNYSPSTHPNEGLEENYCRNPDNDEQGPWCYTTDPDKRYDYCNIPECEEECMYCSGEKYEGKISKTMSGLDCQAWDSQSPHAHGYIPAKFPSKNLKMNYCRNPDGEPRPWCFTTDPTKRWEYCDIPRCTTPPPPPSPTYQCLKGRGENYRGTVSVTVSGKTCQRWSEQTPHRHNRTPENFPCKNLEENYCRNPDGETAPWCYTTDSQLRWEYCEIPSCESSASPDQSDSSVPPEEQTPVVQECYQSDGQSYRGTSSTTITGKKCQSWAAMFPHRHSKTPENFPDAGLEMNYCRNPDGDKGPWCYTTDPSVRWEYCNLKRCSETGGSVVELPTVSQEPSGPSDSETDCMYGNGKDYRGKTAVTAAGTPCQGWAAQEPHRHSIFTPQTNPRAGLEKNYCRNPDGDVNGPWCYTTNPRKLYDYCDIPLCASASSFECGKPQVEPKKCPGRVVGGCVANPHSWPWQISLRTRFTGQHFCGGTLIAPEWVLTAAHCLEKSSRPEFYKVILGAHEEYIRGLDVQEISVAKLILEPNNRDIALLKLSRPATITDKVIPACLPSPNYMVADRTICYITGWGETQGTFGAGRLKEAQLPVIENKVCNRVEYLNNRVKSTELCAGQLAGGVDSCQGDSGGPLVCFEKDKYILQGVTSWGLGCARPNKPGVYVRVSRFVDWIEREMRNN

Row | Substance | plasmin activity (chromozym assay); 50 nM PAI-1 pre-bound to plasminogen 1 h at 37 C before tPA was added (late) [1] [U/ml] | fold more plasminogen complexed with PAI-1 (rPAI-123-treated against saline-treated mice) [2] [fold]
1 | glycosylated human PAI-1 (Molecular Innovations) (from UniProt P05121 24-402) | 0.00138 | –
2 | mouse PAI-1 (endogenous, in descending aorta protein of LDLR-/- ApoB48-deficient mice) (from UniProt P22777 23-402) | – | 1.6
